The test system of one data set is FK. The experiment in a line: dcII production from FK by C-glycosyltransferase candidates and GtCGT mutants in FK-producing E. coli, flask culture. It counts as cell-based. Conditions: flask culture. On the procedure:
Flask culture was carried out under the following conditions. Colonies were seeded into 10 mL of LB medium supplemented with appropriate concentrations of antibiotics, followed by culture overnight at 37° C. The culture fluid thus prepared was passaged into a 250 mL baffled flask containing 50 mL of R/2 medium supplemented with 3 g/L yeast extract and 20 g/L glucose (with 0.45 g/L ascorbic acid if necessary), followed by culture at 30° C. and 200 rpm. The composition of R/2 medium (pH 6.8) was as follows (per liter): 2 g of (NH4)2HPO4, 6.75 g of KH2PO4, 0.85 g of citric acid, 0.7 g of MgSO4·7H2O, and 5 ml of trace metal solution (TMS) [10 g of FeSO4·7H2O, 2.25 g of ZnSO4·7H2O, 1 g of CuSO4·5H2O, 0.5 g of MnSO4·5H2O, 0.23 g of Na2B4O7·10H2O, 2 g of CaCl2·2H2O, and 0.1 g of (NH4)6Mo7O24 per liter of 5 M HCl]. When OD600 of the culture fluid reached 0.6-0.8, 1 mM isopropyl β-D-1-thiogalactopyranoside (IPTG) was added to induce exogenous gene expression, followed by culture for 48 hours.
After culture, production analysis was performed under the following conditions. After flask culture, 50 mL of the culture fluid was centrifuged at 4,000 g for 30 minutes, and then the supernatant was desalted and concentrated. Here, Oasis HLB cartridges (Water) were used. The supernatant was concentrated 1-fold for FK, 30-fold for KA, 45-fold for dell, and 200-fold for carminic acid. The concentrated sample was re-dissolved in an appropriate volume of DMSO and impurities were then removed therefrom using a 0.22 μm PTFE filter. The prepared sample was analyzed by MS (LC/MSD VL; Agilent) coupled with HPLC (1100 series; Agilent). An Eclipse XDB-C18 column was used, 0.1% formic acid was used as buffer A, and methanol was used as buffer B. Analysis was performed in an ESI negative mode. For more accurate analysis of carminic acid, LC-MS/MS was performed using an HPLC Triple Quadrupole Mass Spectrometer (LCMS-8050, Shimadzu) (MRM mode).
Flask culture started by seeding colonies from LB agar plates into test tubes containing 10 mL of LB. As such, an appropriate concentration of antibiotics was added, followed by culture overnight at 37° C. at 220 rpm. 1 mL of the seed culture thus prepared was inoculated into a 250 mL baffled flask containing 50 mL of R/2 medium (supplemented with 3 g/L yeast extract and 20 g/L glucose), followed by culture at 30° C. and 200 rpm. The composition of R/2 medium was as follows (pH 6.8, per 1 L): 2 g of (NH4)2HPO4, 6.75 g of KH2PO4, 0.85 g of citric acid, 0.8 g of MgSO4·7H2O, and 5 ml of trace metal solution (TMS). The composition of TMS was as follows (based on 0.1 M HCl, per 1 L): 10 g of FeSO4·7H2O, 2.25 g of ZnSO4·7H2O, 1 g of CuSO4·5H2O, 0.58 g of MnSO4·5H2O, 0.02 g of Na2B4O7·10H2O, 2 g of CaCl2·2H2O, and 0.1 g of (NH4)6Mo7O24·4H2O. When OD600 of the culture fluid reached 0.6-0.8, 0.5 mM IPTG was added to induce exogenous enzyme expression, followed by culture for 48 hours. In all experiments for producing flavokermesic acid, kermesic acid, dcII, and carminic acid, 0.45 g/L of ascorbic acid was further added.
The production of carminic acid (CA) from FK was performed by two biosynthesis pathways, both of which require monooxygenase and C-glycosyltransferase. FK may be oxidized into KA or may be C-glycosylated into dcII. […] In order for the enzyme to have activity, however, it must be glycosylated, and since it also has a transmembrane helix and a signal peptide, successful expression in cells such as E. coli is considered difficult.
For the enzymes selected above, pCDF-DcCGT, pCDF-MiCGT, pCDF-SfCGT, pCDF-EnCGT, pCDF-OsCGT, pCDF-FeCGT, pCDF-GmCGT, pCDF-AvCGT, pCDF-AvCGT, pCDF-ZmCGT, and pCDF-GtCGT were constructed, and all genes except for the iroB gene amplified from genomic DNA of E. coli Nissle using the iroB_gib_F primer and the iroB_gib_R primer were artificially synthesized and inserted into the NdeI site of the pCDFDuet-1 plasmid using Gibson assembly. […]

For another data set, the system named is luteolin. Briefly: Conversion of luteolin to isoorientin by intracellularly expressed enzyme, flask culture. It counts as cell-based, E. coli. On the procedure:
(§1) As such, 70 μM luteolin, 0.5 mM naringenin, or 185.2 μM apigenin was co-administered, followed by culture for an additional 36 hours. The amounts of substrate and product were analyzed by LC-MS. Flask culture was carried out in a 250 mL baffled flask containing 50 mL of R/2 medium (supplemented with 3 g/L yeast extract and 20 g/L glucose), and culture was performed at 30° C. and 200 rpm.

For a further data set, the system named is apigenin. The experiment in a line: Conversion of apigenin to vitexin by intracellularly expressed enzyme, flask culture. The data set is classed as cell-based, E. coli. Here is the method: as §1
In a further data set the test system is naringenin. Briefly: Conversion of naringenin to naringenin-6-C-glucoside by intracellularly expressed enzyme, flask culture. It counts as cell-based, E. coli. Here is the method:
as §1

Another data set deals with aloesone. Briefly: Aloesin production from aloesone by GtCGT and variants in E. coli BL21(DE3), flask culture. It counts as cell-based. On the procedure:
Also, in LC-MS/MS for aloesin analysis, MS (Agilent 6550 iFunnel Q-TOF LC/MS System) coupled with ultra HPLC (UHPLC; 1290 Infinity II LC System; Agilent) was used. Here, an Eclipse-plus C18 column was used, and 0.1% formic acid was used as buffer A, and acetonitrile to which 0.1% formic acid was added was used as buffer B.
Thereafter, in order to test the production of aloesin, the pCDF-GtCGT or pCDF-GtCGT^V93Q/Y193F plasmid was transformed into the BL21(DE3) strain containing pWAS-anti-pabA, pRSF-RpALS, and pBBR1-zwf plasmids, followed by flask culture.
Similarly to the test for increased production of aloesone, RpALS was additionally introduced to increase aloesin production. To this end, pCDF-RpALS-GtCGT^V93Q/Y193F was constructed instead of introducing pCDF-GtCGT^V93Q/Y193F. Specifically, RpALS was amplified from pCDF-RpALS using pCDFDuet F and pCDFDuet R primers, and inserted into the NcoI and BamHI sites of the pCA plasmid through Gibson assembly. Thereafter, four plasmids, namely pRSF-RpALS, pCDF-RpALS-GtCGT^V93Q/Y193F, pWAS-anti-pabA, and pBBR1-zwf, were transformed into E. coli BL21(DE3), which was named an ALS strain.
(§2) Mutagenesis for a specific sequence was performed in the same manner as in Example 2. Here, plasmids containing gene mutants were constructed using pCDF-RpALS-GtCGT^V93Q/Y193F as a template and using primer pairs shown in Table 11 below. The plasmids thus constructed were transformed into the BL21 (DE3) strain along with three plasmids, namely pWAS-anti-pabA, pRSF-RpALS, and pBBR1-zwf, followed by flask culture under the same conditions as in Example 3 using the strains thus constructed. The concentration of aloesin produced was measured in an MRM mode of the HPLC Triple Quadrupole Mass Spectrometer (LCMS-8050, Shimadzu) of the KAIST Biocore Center.
as §2, with “13” for “11”

The nature of data set [1]: KM and Vmax of purified GtCGT enzymes, FK converted into dcII, UDP-Glo Glycosyltransferase Assay. The data set is classed as biochemical, Gentiana triflora. As to conditions: substrate FK.
Experimental: The purified enzyme was buffer-exchanged with an enzyme storage solution (50 mM HEPES, 20% glycerol, pH 7.5) using Amicon Ultra-15 Centrifugal Filters (regenerated cellulose, 50,000 NMWL; Merck), and in order to calculate KM and Vmax values, FK was converted into dcII using the purified enzyme. Here, a UDP-Glo Glycosyltransferase Assay Kit (Promega) was used to determine the extent of reaction. Since this kit enables measurement of free UDP generated as a reaction byproduct by luminescence, 200 μL of an enzyme reaction solution containing 0.1 μM enzyme and various concentrations of FK (50 mM HEPES, 0.1 mM UDP-glucose, 5 mM MgCl2, pH 7.5) was allowed to react at 25° C. for 1 hour, 25 μL thereof was taken out, and the amount of emitted light was measured using the kit.

Data on one molecule can be found in US20240102068A1, “C-GLYCOSYLTRANSFERASE VARIANTS AND USE THEREOF” (KOREA ADVANCED INSTITUTE OF SCIENCE AND TECHNOLOGY, priority 2021, published 2024).

B1: GtCGT^V93Q/Y193F: GtCGT variant with substitutions V93Q and Y193F (SEQ ID NO: 61) (protein)
chain: MGSLTNNDNLHIFLVCFIGQGVVNPMLRLGKAFASKGLLVTLSAPEIVGTEIRKANNLNDDQPIKVGSGMIRFEFFDDGWESVNGSKPFDVWQYINHLDQTGRQKLPIMLKKHEETGTPVSCLILNPLVPWVADVADSLQIPCATLWVQSCASFSAYYHYHHGLVPFPTESEPEIDVQLPGMPLLKYDEVPDFLHPRTPYPFFGTNILGQFKNLSKNFCILMDTFYELEHEIIDNMCKLCPIKPIGPLFKIPKDPSSNGITGNFMKVDDCKEWLDSRPTSTVVYVSVGSVVYLKQEQVTEMAYGILNSEVSFLWVLRPPSKRIGTEPHVLPEEFWEKAGDRGKVVQWSPQEQVLAHPATVGFLTHCGWNSTQEAISSGVPVITFPQFGDQVTNAKFLVEEFKVGVRLGRGELENRIITRDEVERALREITSGPKAEEVKENALKWKKKAEETVAKGGYSERNLVGFIEEVARKTGTK
modifications: GtCGT V93Q/Y193F (GtUF6CGT1V93Q/Y193F) variant
For B1, the “dcII production increase compared to wild-type GtCGT” value in the data set with FK (FK strain) came to 5.3 fold. Further, in the data set with FK (FK-producing E. coli strain), the dcII production is given as 0.74 mg CA eq/L. The same molecule returned an isoorientin produced in the data set on luteolin (from 70 μM luteolin, 36 hours, with pBBR1-galU-pgm-ndk) of 27.9 µM. In addition, the conversion rate in the data set on luteolin (luteolin to isoorientin) is on record as 27.9%; in the data set on apigenin (apigenin to vitexin), 8.1%; with naringenin (naringenin to naringenin-6-C-glucoside) it was 10.3%. In the data set with apigenin (from 185.2 μM apigenin, 36 hours, with pBBR1-galU-pgm-ndk), this molecule returned a vitexin produced of 15.0 µM. In addition, the naringenin-6-C-glucoside produced in the data set on naringenin (from 0.5 mM naringenin, 36 hours, with pBBR1-galU-pgm-ndk) was found to be 51.6 µM. Further, the aloesin production in the data set on aloesone (BL21(DE3) with pWAS-anti-pabA, pRSF-RpALS, pBBR1-zwf and pCDF-GtCGT variant plasmid) was 0.06 µg/L. Besides, the “aloesin amount compared with strain containing GtCGT” value with aloesone (flask culture) is recorded as “greater amount of aloesin than the strain containing GtCGT”. The “Vmax/KM value increase compared to GtCGT” value in data set [1] came out at 46.8%.
